Measured values published in patent publication US10213494B2, “Treatment of synucleinopathies” (The Brigham and Women's Hospital, Inc., priority 2007, dated 2019).
Square brackets hold non-standard residues; d marks the D form. Peptide text beside a SMILES is read from it. * marks the point of attachment. Sta = CC(C)C[C@H](N)[C@@H](O)CC(=O)O; Isovaleryl = CC(C)CC(=O)*

System: α-synuclein protein (wild-type, human) in MES23.5 cells
Assay: Sandwich ELISA of intracellular α-synuclein in MES23.5 cells co-transfected with wild-type human SNCA cDNA and lysosomal enzyme cDNA
Assay type: cell-based
Details: for intracellular α-synuclein level, % of vector cDNA control levels: GBA variant plasmid 5 μg per 10 cm dish + 0.5 μg SNCA cDNA, 24 hours after transfection, no prosaposin, mean+/−sem
Experimental: Sera from six rabbits were raised and affinity-purified at Open Biosystems, Inc. (openbiosystems.com) against recombinant, full-length human αS. Recombinant αS had been HPLC- and MS-characterized and subjected to amino acid composition and protein concentration analyses. For ELISA, 384-well MaxiSorp plates (Nunc, Inc) were coated with 50 μl/well capturing polyclonal Ab (hSA-2) diluted in coating buffer (NaHCO3 with 0.2% NaN3, pH 9.6). Following washes with PBS/0.05% Tween-20 (PBS-T), plates were blocked for 2 hours at 37° C. in blocking buffer (1.125% fish skin gelatin; PBS-T). After 4 washes, samples were loaded and incubated at 4° C. for 12 hours. Biotinylated Syn-1 mAb (as the assaying Ab) was generated using 200 μg Sulfo-NHS-LC Biotin (Pierce), diluted in blocking buffer and added to the plate for 2 hours at 37° C. Following 4 washes, ExtrAvidin phosphatase (Sigma) diluted in blocking buffer was applied for 1 hr at 37° C. Color development was carried out by using Fast-p-Nitrophenyl Phosphate (Sigma) and monitored kinetically at OD 405 nm every 5 minutes for up to 60 minutes.
To optimize a ‘DNA: LIPOFECTAMINE® 2000’ ratio with low cell toxicity, MES23.5 cells were transfected with either 0.25, 0.5 or 1 μg αS-encoding, wild-type, human SNCA cDNA plus empty vector cDNA up to a total of 5.5 μg DNA per 10 cm dish. 24 hours after transfection, cell lysates were harvested as described above. For serial dilutions of cell lysates, blocking buffer containing 0.5% lysate from vector-transfected wells was used as diluent, which was also used to create the blank and the corresponding standard curve of recombinant human αS. Saturation kinetics were examined for identification of time point(s) where standards and sample dilutions were in the log phase.
MES cells were transfected with 0.5 μg per 10 cm dish of αS-encoding SNCA cDNA-carrying plasmid, plus 5 μg per 10 cm dish of wild-type or mutant, human GBA-encoding plasmid. The GBA variants used were wild type, N370S, D409H, L444P, E235A, and E340A. These 5 GBA mutants were created by site-directed mutagenesis, using the Quickchange® kit (Stratagene), and sequence-verified. The N370S, D409H and L444P are known to occur (in the homozygous or compound heterozygous state) in Gaucher disease in the heterozygous state in Parkinson Disease patients and/or patients with dementia with Lewy bodies. The E235A and E340A mutant GBA proteins are not known to occur in people.
24 hours after transfection, MES cells were lysed as described above and all lysates were analyzed by ELISA. […] This is in contrast to the result observed in Example 5 above. The observed discrepancy can reflect the differences in total DNA transfected in the two paradigms (FIG. 2B; FIG. 2C versus FIG. 4), thereby leading to changes in the DNA:LIPOFECTAMINE® 2000 ratio, and in the role of co-expressed prosaposin (saposin C). It is therefore conceivable that wild-type GBA can have variable effects on αS levels in these MES23.5 cells, depending on the rate of αS import into lysosomes and the composition as well as activation state of more than one lysosomal enzyme.
MES23.5 cells were transfected with 0.5 μg per 10 cm dish of an αS-encoding, wild-type, human SNCA cDNA-carrying plasmid (referred to as MES-hSNCA WT cells in the Western blot shown in FIG. 6), plus either 1.25, 2.5 or 5 μg per 10 cm dish of a human Cathepsin D-encoding CTSD cDNA plasmid, which was purchased from OriGene Technologies, Inc., and was under the control of a CMV promoter. The Cathepsin D clone was fully sequence-verified after isolation and maxiprep. Each transfection arm was balanced with empty vector DNA up to a total of 5.5 μg DNA per 10 cm dish. 24 hours after transfection, cells were lysed, and the resulting lysates were analyzed by the sandwich ELISA described herein. […]

Molecule	amount of αS detected in the lysate (pepstatin A included in the cell lysis buffer)	intracellular α-synuclein level, % of vector cDNA control levels
CC(C)CC(=O)N[C@H](C(=O)N[C@H](C(=O)N[C@@H](CC(C)C)[C@@H](O)CC(=O)N[C@@H](C)C(=O)N[C@@H](CC(C)C)[C@@H](O)CC(=O)O)C(C)C)C(C)C [pepstatin A, reference compound] (Isovaleryl-VV[Sta]A[Sta]-OH)	did not change the amount of αS detected in the lysate	
N370S: human GBA mutant N370S, created by site-directed mutagenesis, disease-related (protein, UniProt P04062 40-536, looked up, variant N370S) Lysosomal acid …: ARPCIPKSFGYSSVVCVCNATYCDSFDPPTFPALGTFSRYESTRSGRRMELSMGPIQANHTGTGLLLTLQPEQKFQKVKGFGGAMTDAAALNILALSPPAQNLLLKSYFSEEGIGYNIIRVPMASCDFSIRTYTYADTPDDFQLHNFSLPEEDTKLKIPLIHRALQLAQRPVSLLASPWTSPTWLKTNGAVNGKGSLKGQPGDIYHQTWARYFVKFLDAYAEHKLQFWAVTAENEPSAGLLSGYPFQCLGFTPEHQRDFIARDLGPTLANSTHHNVRLLMLDDQRLLLPHWAKVVLTDPEAAKYVHGIAVHWYLDFLAPAKATLGETHRLFPNTMLFASEACVGSKFWEQSVRLGSWDRGMQYSHSIITSLLYHVVGWTDWNLALNPEGGPNWVRNFVDSPIIVDITKDTFYKQPMFYHLGHFSKFIPEGSQRVGLVASQKNDLDAVALMHPDGSAVVVVLNRSSKDVPLTIKDPAVGFLETISPGYSIHTYLWRRQ		121.1+/−4.98%
E340A: human GBA mutant directed at the nucleophile, catalytically inactive (protein, UniProt P04062 40-536, looked up, variant E340A) Lysosomal acid …: ARPCIPKSFGYSSVVCVCNATYCDSFDPPTFPALGTFSRYESTRSGRRMELSMGPIQANHTGTGLLLTLQPEQKFQKVKGFGGAMTDAAALNILALSPPAQNLLLKSYFSEEGIGYNIIRVPMASCDFSIRTYTYADTPDDFQLHNFSLPEEDTKLKIPLIHRALQLAQRPVSLLASPWTSPTWLKTNGAVNGKGSLKGQPGDIYHQTWARYFVKFLDAYAEHKLQFWAVTAENEPSAGLLSGYPFQCLGFTPEHQRDFIARDLGPTLANSTHHNVRLLMLDDQRLLLPHWAKVVLTDPEAAKYVHGIAVHWYLDFLAPAKATLGETHRLFPNTMLFASAACVGSKFWEQSVRLGSWDRGMQYSHSIITNLLYHVVGWTDWNLALNPEGGPNWVRNFVDSPIIVDITKDTFYKQPMFYHLGHFSKFIPEGSQRVGLVASQKNDLDAVALMHPDGSAVVVVLNRSSKDVPLTIKDPAVGFLETISPGYSIHTYLWRRQ		156.4+/−19.65%
E235A: human GBA mutant directed at the acid/base catalyst, catalytically inactive (protein, UniProt P04062 40-536, looked up, variant E235A) Lysosomal acid …: ARPCIPKSFGYSSVVCVCNATYCDSFDPPTFPALGTFSRYESTRSGRRMELSMGPIQANHTGTGLLLTLQPEQKFQKVKGFGGAMTDAAALNILALSPPAQNLLLKSYFSEEGIGYNIIRVPMASCDFSIRTYTYADTPDDFQLHNFSLPEEDTKLKIPLIHRALQLAQRPVSLLASPWTSPTWLKTNGAVNGKGSLKGQPGDIYHQTWARYFVKFLDAYAEHKLQFWAVTAENAPSAGLLSGYPFQCLGFTPEHQRDFIARDLGPTLANSTHHNVRLLMLDDQRLLLPHWAKVVLTDPEAAKYVHGIAVHWYLDFLAPAKATLGETHRLFPNTMLFASEACVGSKFWEQSVRLGSWDRGMQYSHSIITNLLYHVVGWTDWNLALNPEGGPNWVRNFVDSPIIVDITKDTFYKQPMFYHLGHFSKFIPEGSQRVGLVASQKNDLDAVALMHPDGSAVVVVLNRSSKDVPLTIKDPAVGFLETISPGYSIHTYLWRRQ		231.0+/−37.14%
D409H: human GBA mutant D409H, created by site-directed mutagenesis, disease-related (protein, UniProt P04062 40-536, looked up, variant D409H) Lysosomal acid …: ARPCIPKSFGYSSVVCVCNATYCDSFDPPTFPALGTFSRYESTRSGRRMELSMGPIQANHTGTGLLLTLQPEQKFQKVKGFGGAMTDAAALNILALSPPAQNLLLKSYFSEEGIGYNIIRVPMASCDFSIRTYTYADTPDDFQLHNFSLPEEDTKLKIPLIHRALQLAQRPVSLLASPWTSPTWLKTNGAVNGKGSLKGQPGDIYHQTWARYFVKFLDAYAEHKLQFWAVTAENEPSAGLLSGYPFQCLGFTPEHQRDFIARDLGPTLANSTHHNVRLLMLDDQRLLLPHWAKVVLTDPEAAKYVHGIAVHWYLDFLAPAKATLGETHRLFPNTMLFASEACVGSKFWEQSVRLGSWDRGMQYSHSIITNLLYHVVGWTDWNLALNPEGGPNWVRNFVDSPIIVDITKHTFYKQPMFYHLGHFSKFIPEGSQRVGLVASQKNDLDAVALMHPDGSAVVVVLNRSSKDVPLTIKDPAVGFLETISPGYSIHTYLWRRQ		269.4+/−56.6%
L444P: human GBA mutant L444P, created by site-directed mutagenesis, disease-related (protein, UniProt P04062 40-536, looked up, variant L444P) Lysosomal acid …: ARPCIPKSFGYSSVVCVCNATYCDSFDPPTFPALGTFSRYESTRSGRRMELSMGPIQANHTGTGLLLTLQPEQKFQKVKGFGGAMTDAAALNILALSPPAQNLLLKSYFSEEGIGYNIIRVPMASCDFSIRTYTYADTPDDFQLHNFSLPEEDTKLKIPLIHRALQLAQRPVSLLASPWTSPTWLKTNGAVNGKGSLKGQPGDIYHQTWARYFVKFLDAYAEHKLQFWAVTAENEPSAGLLSGYPFQCLGFTPEHQRDFIARDLGPTLANSTHHNVRLLMLDDQRLLLPHWAKVVLTDPEAAKYVHGIAVHWYLDFLAPAKATLGETHRLFPNTMLFASEACVGSKFWEQSVRLGSWDRGMQYSHSIITNLLYHVVGWTDWNLALNPEGGPNWVRNFVDSPIIVDITKDTFYKQPMFYHLGHFSKFIPEGSQRVGLVASQKNDPDAVALMHPDGSAVVVVLNRSSKDVPLTIKDPAVGFLETISPGYSIHTYLWRRQ		172.7+/−23.02%
